Source: the RNAGym collection of RNA variant scans (doi:10.1073/pnas.2313332121)
Fewer inactive variants are shown than the library holds.

B1: TPR 5TU (parent)
chain: GGAUCUUCUCGAUCUAACAAAAAAGACAAAUCUGCCACAAAGCUUGAGAGCAUCUUCGGAUGCAGAGGCGGCAGCCUUCGGUGGCGCGAUAGCGCCAACGUUCUCAACUAUGACACGCAAAACGCGUGCUCCGUUGAAUGGAGUUUAUCAUG

Variants of: B1
Assay: polymerase ribozyme fitness, log enrichment relative to wild type (log ratio); higher = more active; in vitro selection for triplet polymerase activity
In short: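 After PCR construction and transcription, each subunit's mutant library from a heterodimeric triplet polymerase ribozyme was annealed with a biotinylated primer, the partner subunit and triplets. Incubation was frozen, at −7 °C, and extended constructs were gel-excised, bound to streptavidin beads and amplified by RT-PCR, in one selection round done in triplicate. Fitness is the logarithm of a genotype's enrichment divided by that of the wild type, from inverse-variance-weighted replicate averages of Illumina-sequenced inputs and outputs. The base of the logarithm is 2, and genotypes needed ≥10 input reads and ≥1 read per output.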

GGAUCUUCUCGAUCUAACAAAAAAGACAAAUCUGCCACAAAGCUUGAGAGCAUCUUCGGAUGCAGAGGCGGCAGCCUUGGGUGGCGCCAUAACGCCAACGUUCUCAACUAUGACACGCAAAACGGGUGCUCCGUUGAAUGGAGUUUAUCAUG [C79G G88C G92A C125G] and GGAUCUUCUCGAUCUAACAAAAAAGACAAAUCUGCCACAAAGCUUGAGAGCAUCUUCGGAUGCAGAGGCGGCAGCCUUAGGGGGCGCGAUAGAGCCAACGUUCUCAACUAUGACACGCAAAACGCGUGCUCCGUUGAAUGUAGUUUAUCAUU [C79A U82G C93A G141U G152U] cannot be ordered by “polymerase ribozyme fitness (log ratio)” value: no more than -4.2 for the first, no more than -4.2 for the second.

Going from GGAUCUUCUCGAUCUAACAAAAAAGACAAAUCUGCCACAAAGCUUGAGAGCAUCUUCGGAUGCAGAGGCGGCAGCCUUUGGUGGCGUGAUAGCGCCAACGUUCUCAACUAUGGCACGCAAAACGCGUGCUCCGUUGAAUGGAGUUUAUCAUG [C79U C87U A113G] to GGAUCUUCUCGAUCUAACAAAAAAGACAAAUCUGCCACAAAGCUUGAGAGCAUCUUCGGAUGCAGAGGCGGCAGCCUUGGGUGGCGCGAUAGCGCCAACGUUCUCAACUAUGACACGCAAACCGCGUGCUCCGUUGAAUAGAGUUUAUCAUG [C79G A122C G140A], the “polymerase ribozyme fitness (log ratio)” value falls from -4.11 to no more than -4.2.

First: GGAUCUUCUCGAUCUAACAAAAAAGACAAAUCUGCCACAAAGCUUGAGAGCAUCUUCGGAUGCAGAGGCGGCAGCCUUUGGUGGUGCGAUAGCGCCAACGUUCUCAACUAUGACACGCAAAACGCGUGCUCCGUUGAAUGGAGUUUAUCAUG [C79U C85U]
Second: GGAUCUUCUCGAUCUAACAAAAAAGACAAAUCUGCCACAAAGCUUGAGAGCAUCUUCGGAUGCAGAGGCGGCAGCCUUGGGUGGCGCGAUAGCGCCAACGUUCUCAACUAUGACACGCAAAACUCGUGCUCCGUUGAACGGAGUUUAUCAUG [C79G G124U U139C]
The “polymerase ribozyme fitness (log ratio)” value of the first is higher: -1.94 for the first, no more than -4.2 for the second.

Going from GGAUCUUCUCGAUCUAACAAAAAAGACAAAUCUGCCACAAAGCUUGAGAGCAUCUUCGGAUGCAGAGGCGGCAGCCUUGGGUGACGCGAUAGCGCCAACAUUCUCAACUCUGACACGCAAAACGCGUGCUCCGUUGAAUGGAGUUUAUCAUG [C79G G84A G100A A110C] to GGAUCUUCUCGAUCUAACAAAAAAGACAAAUCUGCCACAAAGCUUGAGAGCAUCUUCGGAUGCAGAGGCGGCAGCCUUUGGUGGCGCGAUCGCGCCAACGUUCUCAACUAUGACACGCAAAACGCGUGCUCCGUUGAAUGGAGUUUAUCAUG [C79U A91C], the “polymerase ribozyme fitness (log ratio)” value rises from no more than -4.2 to -4.02.

Going from GGAUCUUCUCGAUCUAACAAAAAAGACAAAUCUGCCACAAAGCUUGAGAGCAUCUUCGGAUGCAGAGGCGGCAGCCUUUGGUGGCGCGAUAGAGCCAACGUUCUCAACUAUGACACGCAAAACGCGUGCUCCGUUGAAUGGAGUUUAUCAUG [C79U C93A] to GGAUCUUCUCGAUCUAACAAAAAAGACAAAUCUGCCACAAAGCUUGAGAGCAUCUUCGGAUGCAGAGGCGGCAGCCUUUGGUGGCGCGAUAGUGCCAACGUUCUCAACUAUGACACGCAAAACGCGUGCUCCGUUGAAUGGAGUUUAUCAUG [C79U C93U], the “polymerase ribozyme fitness (log ratio)” value rises from -3.77 to -3.03.

First: GGAUCUUCUCGAUCUAACAAAAAAGACAAAUCUGCCACAAAGCUUGAGAGCAUCUUCGGAUGCAGAGGCGGCAGCCUUGGGUGGCGCGAUGGCGCCAACGUUCUCAACUAUGUCACGCAAAACGCGUGCUCCGUUGAAUGGAGUUUAUCAUG [C79G A91G A113U]
Second: GGAUCUUCUCGAUCUAACAAAAAAGACAAAUCUGCCACAAAGCUUGAGAGCAUCUUCGGAUGCAGAGGCGGCAGCCUUGGGUGGCGCGAUAGCGCCAGCCUUCUCAACUAUGACACGCAAAACACGUGCUCCGUUGAAUGGAGUUUAUCAUG [C79G A98G G100C G124A]
The “polymerase ribozyme fitness (log ratio)” value of the first is lower: no more than -4.2 for the first, -2.18 for the second.

Going from GGAUCUUCUCGAUCUAACAAAAAAGACAAAUCUGCCACAAAGCUUGAGAGCAUCUUCGGAUGCAGAGGCGGCAGCCUUGGGUGGCGCGAUAGCGCCAACGUUCUCAACUAUGACACGCAAAACGCGUUCUCCGUUGAAUGGAGUUUAUCAUG [C79G G128U] to GGAUCUUCUCGAUCUAACAAAAAAGACAAAUCUGCCACAAAGCUUGAGAGCAUCUUCGGAUGCAGAGGCGGCAGCCUUGGGUGGCGCGAUAGCGUCAACGUUCUCAACUAUGACACGCAAAACGCGUGCUCCGUUGAAUGGAGUUUAUCAUG [C79G C95U], the “polymerase ribozyme fitness (log ratio)” value rises from no more than -4.2 to -3.03.

GGAUCUUCUCGAUCUAACAAAAAAGACAAAUCUGCCACAAAGCUUGAGAGCAUCUUCGGAUGCAGAGGCGGCAGCCUUGGUUGGCGCGAUAGCGCCAACGUUCUCAACUAUGACACGCAAAACGCGUGCUCCAUUGAAUGGAGUUUAUCAUG [C79G G81U G133A] and GGAUCUUCUCGAUCUAACAAAAAAGACAAAUCUGCCACAAAGCUUGAGAGCAUCUUCGGAUGCAGAGGCGGCAGCCUUAGGUGGCGCGAGAGCGGCAACGUUCUCAACUAUGACAAGCCAAACGCGUGCUCCGUUGAAUGUAGUUUAUCAUG [C79A U90G C95G C116A A119C G141U] cannot be ordered by “polymerase ribozyme fitness (log ratio)” value: no more than -4.2 for the first, no more than -4.2 for the second.

GGAUCUUCUCGAUCUAACAAAAAAGACAAAUCUGCCACAAAGCUUGAGAGCAUCUUCGGAUGCAGAGGCGGCAGCCUUAGGUGGCGCGAUAGCGCCAACGGUCUCAACUAUGACACGCAAAACGCGUGCUCCGUUGAAUGGAGUUUAUCAUG [C79A U101G] and GGAUCUUCUCGAUCUAACAAAAAAGACAAAUCUGCCACAAAGCUUGAGAGCAUCUUCGGAUGCAGAGGCGGCAGCCUUAGGAGGCGCGAUAGCGCAAACGUUCUCAUCUAUGACACGCAAAACGCGUGCUCCGUUGAAAGGAGUUUAUCAUG [C79A U82A C96A A107U U139A] cannot be ordered by “polymerase ribozyme fitness (log ratio)” value: no more than -4.2 for the first, no more than -4.2 for the second.

For GGAUCUUCUCGAUCUAACAAAAAAGACAAAUCUGCCACAAAGCUUGAGAGCAUCUUCGGAUGCAGAGGCGGCAGCCUUGGGUGGCGCGAUAGCGCCAACGGUCUCAACGAUGACACGCAAAACGCGUGCUCCGUCGAAUGGAGUUUAACAUG [C79G U101G U109G U135C U148A], the “polymerase ribozyme fitness (log ratio)” value was no more than -4.2.
